B1: Protein PTHB1 (Homo sapiens), Q3SYG4 (parent)
chain: MSLFKARDWWSTILGDKEEFDQGCLCLANVDNSGNGQDKIIVGSFMGYLRIFSPHPAKTGDGAQAEDLLLEVDLRDPVLQVEVGKFVSGTEMLHLAVLHSRKLCVYSVSGTLGNVEHGNQCQMKLMYEHNLQRTACNMTYGSFGGVKGRDLICIQSMDGMLMVFEQESYAFGRFLPGFLLPGPLAYSSRTDSFLTVSSCQQVESYKYQVLAFATDADKRQETEQQKLGSGKRLVVDWTLNIGEQALDICIVSFNQSASSVFVLGERNFFCLKDNGQIRFMKKLDWSPSCFLPYCSVSEGTINTLIGNHNNMLHIYQDVTLKWATQLPHIPVAVRVGCLHDLKGVIVTLSDDGHLQCSYLGTDPSLFQAPNVQSRELNYDELDVEMKELQKIIKDVNKSQGVWPMTEREDDLNVSVVVSPNFDSVSQATDVEVGTDLVPSVTVKVTLQNRVILQKAKLSVYVQPPLELTCDQFTFEFMTPDLTRTVSFSVYLKRSYTPSELEGNAVVSYSRPTDRNPDGIPRVIQCKFRLPLKLICLPGQPSKTASHKITIDTNKSPVSLLSLFPGFASQSDDDQVNVMGFHFLGGARITVLASKTSQRYRIQSEQFEDLWLITNELILRLQEYFEKQGVKDFACSFSGSIPLQEYFELIDHHFELRINGEKLEELLSERAVQFRAIQRRLLARFKDKTPAPLQHLDTLLDGTYKQVIALADAVEENQGNLFQSFTRLKSATHLVILLIALWQKLSADQVAILEAAFLPLQEDTQELGWEETVDAAISHLLKTCLSKSSKEQALNLNSQLNIPKDTSQLKKHITLLCDRLSKGGRLCLSTDAAAPQTMVMPGGCTTIPESDLEERSVEQDSTELFTNHRHLTAETPRPEVSPLQGVSE
partner: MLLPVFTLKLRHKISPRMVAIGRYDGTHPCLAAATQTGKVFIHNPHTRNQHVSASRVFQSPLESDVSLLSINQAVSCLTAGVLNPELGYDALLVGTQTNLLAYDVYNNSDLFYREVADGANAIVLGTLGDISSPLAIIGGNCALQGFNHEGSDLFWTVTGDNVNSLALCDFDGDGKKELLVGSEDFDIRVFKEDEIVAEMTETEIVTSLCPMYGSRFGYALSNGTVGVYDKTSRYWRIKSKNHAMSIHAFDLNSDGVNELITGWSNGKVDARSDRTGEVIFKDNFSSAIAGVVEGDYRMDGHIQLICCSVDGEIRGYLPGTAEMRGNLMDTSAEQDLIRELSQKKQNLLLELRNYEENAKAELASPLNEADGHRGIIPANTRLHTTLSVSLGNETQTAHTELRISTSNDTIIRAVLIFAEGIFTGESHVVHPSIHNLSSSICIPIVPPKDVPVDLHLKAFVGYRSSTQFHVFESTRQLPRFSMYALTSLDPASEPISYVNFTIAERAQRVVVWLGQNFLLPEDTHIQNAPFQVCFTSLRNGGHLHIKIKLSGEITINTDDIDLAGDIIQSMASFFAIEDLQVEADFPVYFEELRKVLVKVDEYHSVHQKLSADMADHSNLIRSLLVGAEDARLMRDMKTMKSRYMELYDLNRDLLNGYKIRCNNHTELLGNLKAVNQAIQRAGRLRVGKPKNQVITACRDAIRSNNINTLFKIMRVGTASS

Variants of: B1
Conditions: with bbs2_human BBS2, Q9BXC9

Row | effect of a mutation on the interaction | Variant
1 | with no effect | P438E
2 | with no effect | P438K
3 | with no effect | P438A
4 | with no effect | V424K
5 | with no effect | V424E
6 | with no effect | V424A
7 | with no effect | N448A
8 | with no effect | N448K
9 | with no effect | N448E
10 | with no effect | F476K
11 | with no effect | F476E
12 | with no effect | F476A
13 | with no effect | T482E
14 | with no effect | T482K
15 | with no effect | T482A
16 | with no effect | D435K
17 | with no effect | D435E
18 | with no effect | D435A
19 | with no effect | C469E
20 | with no effect | C469A
21 | with no effect | C469K
22 | with no effect | T484K
23 | with no effect | T484A
24 | with no effect | T484E

Row | effect of a mutation on the interaction | Variant
25 | with no effect | A427E
26 | with no effect | A427K
27 | with no effect | R449A
28 | with no effect | R449E
29 | with no effect | R449K
30 | with no effect | S458E
31 | with no effect | S458A
32 | with no effect | S458K
33 | with no effect | D480K
34 | with no effect | D480E
35 | with no effect | D480A
36 | with no effect | L481A
37 | with no effect | L481E
38 | with no effect | L481K
39 | with no effect | V450E
40 | with no effect | V450A
41 | with no effect | V450K
42 | with no effect | T473E
43 | with no effect | T473A
44 | with no effect | T473K
45 | with no effect | P464K
46 | with no effect | P464A
47 | with no effect | P464E
48 | with no effect | Q453A

Row | effect of a mutation on the interaction | Variant
49 | with no effect | Q453E
50 | with no effect | Q453K
51 | with no effect | Q426K
52 | with no effect | Q426A
53 | with no effect | Q426E
54 | with no effect | L446K
55 | with no effect | L446E
56 | with no effect | L446A
57 | with no effect | V459K
58 | with no effect | V459A
59 | with no effect | V459E
60 | with no effect | S423E
61 | with no effect | S423K
62 | with no effect | S423A
63 | with no effect | T428E
64 | with no effect | T428K
65 | with no effect | T428A
66 | with no effect | Q471E
67 | with no effect | Q471A
68 | with no effect | Q471K
69 | with no effect | L452E
70 | with no effect | L452A
71 | with no effect | L452K
72 | with no effect | V430E

Row | effect of a mutation on the interaction | Variant
73 | with no effect | V430K
74 | with no effect | V430A
75 | with no effect | K454E
76 | with no effect | K454A
77 | with no effect | L457E
78 | with no effect | L457K
79 | with no effect | L457A
80 | with no effect | V442A
81 | with no effect | V442K
82 | with no effect | V442E
83 | with no effect | S425E
84 | with no effect | S425A
85 | with no effect | S425K
86 | with no effect | T434A
87 | with no effect | T434E
88 | with no effect | T434K
89 | with no effect | D429K
90 | with no effect | D429E
91 | with no effect | D429A
92 | with no effect | V440E
93 | with no effect | V440A
94 | with no effect | V440K
95 | with no effect | G433K
96 | with no effect | G433A

Row | effect of a mutation on the interaction | Variant
97 | with no effect | G433E
98 | with no effect | T468K
99 | with no effect | T468E
100 | with no effect | T468A
101 | with no effect | F474K
102 | with no effect | F474A
103 | with no effect | F474E
104 | with no effect | T478K
105 | with no effect | T478E
106 | disrupting interaction strength | T478I
107 | with no effect | T478A
108 | with no effect | Y460A
109 | with no effect | Y460E
110 | with no effect | Y460K
111 | with no effect | A455K
112 | with no effect | A455E
113 | with no effect | V461K
114 | with no effect | V461E
115 | with no effect | V461A
116 | with no effect | V444K
117 | with no effect | V444E
118 | with no effect | V444A
119 | with no effect | L436K
120 | with no effect | L436A

Row | effect of a mutation on the interaction | Variant
121 | with no effect | L436E
122 | with no effect | I451A
123 | with no effect | I451E
124 | with no effect | I451K
125 | with no effect | T441A
126 | with no effect | T441K
127 | with no effect | T441E
128 | with no effect | S439K
129 | with no effect | S439E
130 | with no effect | S439A
131 | with no effect | R483K
132 | with no effect | R483E
133 | with no effect | R483A
134 | with no effect | Q447A
135 | with no effect | Q447E
136 | with no effect | Q447K
137 | with no effect | E466K
138 | with no effect | E466A
139 | with no effect | K456A
140 | with no effect | K456E
141 | with no effect | L465A
142 | with no effect | L465E
143 | with no effect | L465K
144 | with no effect | P463K

Row | effect of a mutation on the interaction | Variant
145 | with no effect | P463A
146 | with no effect | P463E
147 | with no effect | D422E
148 | with no effect | D422K
149 | with no effect | F472E
150 | with no effect | F472A
151 | with no effect | F472K
152 | with no effect | E431K
153 | with no effect | E431A
154 | with no effect | M477K
155 | with no effect | M477E
156 | with no effect | M477A
157 | with no effect | D470K
158 | with no effect | D470A
159 | with no effect | D470E
160 | disrupting interaction strength | D470N
161 | with no effect | V437K
162 | with no effect | V437A
163 | with no effect | V437E
164 | disrupting interaction strength | P479L
165 | with no effect | P479E
166 | with no effect | P479K
167 | with no effect | P479A
168 | with no effect | L467A

Row | effect of a mutation on the interaction | Variant
169 | with no effect | L467E
170 | with no effect | L467K
171 | with no effect | K443E
172 | with no effect | K443A
173 | with no effect | V432K
174 | with no effect | V432A
175 | with no effect | V432E
176 | disrupting interaction strength | Q462Y
177 | with no effect | Q462A
178 | disrupting interaction strength | Q462T
179 | with no effect | Q462K
180 | with no effect | Q462E
181 | with no effect | E475K
182 | with no effect | E475A
183 | with no effect | T445K
184 | with no effect | T445E
185 | with no effect | T445A
